Data published in PMC9578707, “Identification of orphan ligand-receptor relationships using a cell-based CRISPRa enrichment screening platform” (eLife, 2022).
Blank lines part the entries; values can stand above or below the molecule they belong to.

Tests used:
[1] = molecular target: RNF167-ECD (transmembrane PA-TM-RING E3 ligase RNF167, extracellular domain) (human) (UniProt Q9H6Y7); test: SPR; Biacore T100; biotinylated ligand captured on a streptavidin (SA) Series S chip (~100-200 RU); non-biotinylated analyte in twofold dilutions in HBS-P+; 60 s injection at 30 ul/min, 240 s dissociation; regeneration 2 x 10 sec 2M MgCl2; KD from the fit at equilibrium (steady state)
human PTPRU-ECD [2] = molecular target: T1, human PTPRU-ECD (human, UniProt Q92729 19-749, biotin where captured on the streptavidin chip); test: SPR
T1 chain: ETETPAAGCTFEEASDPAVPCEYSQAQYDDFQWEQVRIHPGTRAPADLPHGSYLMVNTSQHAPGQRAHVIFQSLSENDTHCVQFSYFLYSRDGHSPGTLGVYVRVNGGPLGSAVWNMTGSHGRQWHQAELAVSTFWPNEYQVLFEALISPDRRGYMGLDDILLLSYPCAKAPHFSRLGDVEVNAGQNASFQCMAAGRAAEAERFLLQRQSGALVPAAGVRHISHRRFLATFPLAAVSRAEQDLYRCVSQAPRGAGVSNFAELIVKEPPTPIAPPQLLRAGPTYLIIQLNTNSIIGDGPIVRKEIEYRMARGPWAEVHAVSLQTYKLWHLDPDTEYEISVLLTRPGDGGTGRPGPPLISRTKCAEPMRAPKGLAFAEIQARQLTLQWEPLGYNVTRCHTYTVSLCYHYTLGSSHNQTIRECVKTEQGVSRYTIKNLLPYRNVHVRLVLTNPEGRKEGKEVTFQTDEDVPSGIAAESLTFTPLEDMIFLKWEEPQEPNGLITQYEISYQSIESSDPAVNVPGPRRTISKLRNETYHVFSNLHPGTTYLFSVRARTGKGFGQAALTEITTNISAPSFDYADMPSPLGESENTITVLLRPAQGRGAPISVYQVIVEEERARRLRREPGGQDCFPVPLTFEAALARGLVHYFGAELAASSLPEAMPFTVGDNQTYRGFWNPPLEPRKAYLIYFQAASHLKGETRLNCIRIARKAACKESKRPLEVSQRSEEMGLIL

human PTPRU-ECD [3] = molecular target: T2, human PTPRU-ECD (human, UniProt Q92729 19-749, biotin where captured on the streptavidin chip); test: SPR; Biacore T100; biotinylated receptor ECD or hit protein captured on a streptavidin chip (~100-200 RU), non-biotinylated secreted ligand as analyte in twofold dilutions; HBS-P+ buffer; 1:1 Langmuir model or equilibrium fit; conditions: both partners purified
T2 construct: PTPRU, human, extracellular domain; construct of the ECD is not described; source: Expi293F, purified (Ni-NTA, SEC)
T2 sequence (looked up): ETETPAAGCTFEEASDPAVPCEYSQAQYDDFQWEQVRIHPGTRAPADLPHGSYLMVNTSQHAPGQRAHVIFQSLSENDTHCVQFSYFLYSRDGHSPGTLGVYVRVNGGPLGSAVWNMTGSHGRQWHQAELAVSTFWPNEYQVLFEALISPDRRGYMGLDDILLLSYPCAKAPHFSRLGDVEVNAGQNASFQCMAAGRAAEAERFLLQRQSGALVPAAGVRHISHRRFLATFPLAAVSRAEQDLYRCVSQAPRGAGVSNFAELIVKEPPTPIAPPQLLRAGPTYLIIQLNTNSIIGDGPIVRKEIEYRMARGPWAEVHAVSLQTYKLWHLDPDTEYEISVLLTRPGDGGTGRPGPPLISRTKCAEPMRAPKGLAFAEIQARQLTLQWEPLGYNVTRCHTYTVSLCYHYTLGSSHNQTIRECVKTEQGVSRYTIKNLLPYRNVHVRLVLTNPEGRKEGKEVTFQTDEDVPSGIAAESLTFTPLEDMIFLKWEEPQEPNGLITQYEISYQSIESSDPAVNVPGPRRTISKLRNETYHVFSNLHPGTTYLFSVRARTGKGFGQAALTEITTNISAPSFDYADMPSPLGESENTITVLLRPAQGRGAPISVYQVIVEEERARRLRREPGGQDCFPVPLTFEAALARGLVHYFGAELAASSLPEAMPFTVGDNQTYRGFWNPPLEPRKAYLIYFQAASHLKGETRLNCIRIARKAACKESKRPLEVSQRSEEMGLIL

[4] = molecular target: T3, PTPRU-ECD (receptor protein tyrosine phosphatase U, extracellular domain) (human, UniProt Q92729 19-749, biotin (BirA biotinylation; captured on streptavidin chip)); test: SPR; Biacore T100; biotinylated ligand captured on a streptavidin (SA) Series S chip (~100-200 RU); non-biotinylated analyte in twofold dilutions in HBS-P+; 60 s injection at 30 ul/min, 240 s dissociation; regeneration 2 x 10 sec 2M MgCl2; kinetic fit with a 1:1 binding (Langmuir) model; conditions: both partners purified
T3 construct: receptor-type protein tyrosine phosphatase U (PTPRU, R2B subfamily), human, extracellular domain; source: Expi293F, purified (Ni-NTA, SEC), biotinylated in vitro with BirA
T3 sequence (looked up): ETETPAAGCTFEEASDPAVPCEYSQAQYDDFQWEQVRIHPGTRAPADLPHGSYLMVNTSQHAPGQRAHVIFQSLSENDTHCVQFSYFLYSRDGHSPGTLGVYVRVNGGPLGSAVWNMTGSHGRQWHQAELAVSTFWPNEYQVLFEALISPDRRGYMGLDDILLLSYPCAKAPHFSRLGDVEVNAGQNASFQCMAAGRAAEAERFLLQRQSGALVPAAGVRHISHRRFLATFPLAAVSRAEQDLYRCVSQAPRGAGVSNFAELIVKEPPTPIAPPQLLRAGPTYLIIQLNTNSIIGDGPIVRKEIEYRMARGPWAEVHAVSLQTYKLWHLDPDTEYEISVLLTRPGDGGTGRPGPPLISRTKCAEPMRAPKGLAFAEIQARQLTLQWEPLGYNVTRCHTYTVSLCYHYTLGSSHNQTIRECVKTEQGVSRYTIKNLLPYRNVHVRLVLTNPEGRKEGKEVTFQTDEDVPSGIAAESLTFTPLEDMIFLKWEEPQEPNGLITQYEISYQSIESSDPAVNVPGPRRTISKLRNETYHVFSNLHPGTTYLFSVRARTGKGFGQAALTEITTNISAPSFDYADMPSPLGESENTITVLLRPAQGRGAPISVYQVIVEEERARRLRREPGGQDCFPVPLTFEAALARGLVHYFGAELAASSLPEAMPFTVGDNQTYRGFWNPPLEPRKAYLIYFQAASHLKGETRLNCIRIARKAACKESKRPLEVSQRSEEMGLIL

Kd [1]: 314000 nM
Molecule: TAFA-2 (FAM19A2; chemokine-like family member 2) (from UniProt Q8N3H0 31-131) (ligand)

koff (human PTPRU-ECD [2]): 0.0036 s⁻¹ | Kd (human PTPRU-ECD [3]): ~12 nM
B1: Osteocrin (ligand, human, UniProt P61366 28-133, looked up)
chain: VDVTTTEAFDSGVIDVQSTPTVREEKSATDLTAKLLLLDELVSLENDVIETKKKRSFSGFGSPLDRLSAGSVDHKGKQRKVVDHPKRRFGIPMDRIGRNRLSNSRG
modifications: biotin (biotinylated in vitro with BirA) where used on beads
notes: Osteocrin, human; also called OSTN; Musclin; source: Expi293F, purified (Ni-NTA, SEC); not shown: AviTag, C-terminal, kept

Kd [4]: 12.7 nM | koff [4]: 0.00368 s⁻¹ | kon [4]: 290000 M⁻¹ s⁻¹
B2: Osteocrin (OSTN) (ligand, human, UniProt P61366 28-133, looked up)
chain: VDVTTTEAFDSGVIDVQSTPTVREEKSATDLTAKLLLLDELVSLENDVIETKKKRSFSGFGSPLDRLSAGSVDHKGKQRKVVDHPKRRFGIPMDRIGRNRLSNSRG
notes: Osteocrin (OSTN, Musclin), human; also called Musclin; source: Expi293F, purified (Ni-NTA, SEC), not biotinylated (SPR analyte)
